The record followed here is patent publication US12637517B2, “Enzyme and pathway modulation with sulfhydryl compounds and their derivatives” (HOFFMANN-LA ROCHE INC., priority 2020, dated 2026).

The target in one test is FcRn (Homo sapiens, UniProt P55899). The experiment in a line: Relative binding to FcRn by surface plasmon resonance (SPR). The following applies: for Relative level of FcRn binding (at Day-14) (%): EXAMPLE-8, small-scale purified mAb from CHO L971 process, SPR. From the text: The neonatal Fe receptor (FcRn) influences the pharmacokinetic (PK) profile of IgG-type antibodies by its ability to salvage antibodies from the early endosome and recycle them back into circulation. The interaction with FcRn is considered to be the most critical factor in determining the PK of IgG-type therapeutic antibodies and is considered a surrogate for clearance (see review Nimmerjahn and Ravetch 2008).
(§1) Here, relative binding of the small-scale purified aSyn-L971-mAb samples to FcRn and FcγIIa (His131) by surface plasmon resonance (SPR) was determined. The relative binding of the small-scale purified aSyn-L971-mAb samples to the target was determined by ELISA.
For orientation: Surface plasmon resonance follows binding to a sensor surface in real time, without labels.

A further test has as its target T1, Fcγ-RIIa (H131) (Homo sapiens, UniProt P12318).
T1 sequence (P12318 34-217 limits assumed): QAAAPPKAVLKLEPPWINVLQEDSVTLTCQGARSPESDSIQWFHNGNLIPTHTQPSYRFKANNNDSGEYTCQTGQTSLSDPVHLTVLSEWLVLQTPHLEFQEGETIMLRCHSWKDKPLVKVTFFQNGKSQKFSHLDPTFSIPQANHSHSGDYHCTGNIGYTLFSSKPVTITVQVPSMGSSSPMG
The experiment in a line: Relative binding to FcγIIa (His131) by surface plasmon resonance (SPR). The following applies: for Relative level of FcyRIIa binding (at Day-14) (%): EXAMPLE-8, small-scale purified mAb from CHO L971 process, SPR, H131 allotype.
Description: Fcγ-receptors are mediators of effector functions on immune effector cells. Among the different human Fcγ-receptors, Fcγ-RIIa is considered to be a dominant factor in mediating antibody dependent phagocytosis (ADCP). Of the two most prevalent allotypes of Fcγ-RIIa, the form with a histidine at amino acid position 131 (H131) is often described as the higher affinity allotype. (Nimmerjahn and Ravetch 2008, Yamada et al. 2013)
as §1

The next test concerns the target human α-synuclein (Homo sapiens, UniProt P37840). The experiment in a line: Relative binding to the target by ELISA. The following applies: for Relative level of Target binding (at Day-14) (%): EXAMPLE-8, small-scale purified mAb from CHO L971 process, ELISA. How it is done: as §1

Sequence of FcRn (P55899 24-297 limits assumed): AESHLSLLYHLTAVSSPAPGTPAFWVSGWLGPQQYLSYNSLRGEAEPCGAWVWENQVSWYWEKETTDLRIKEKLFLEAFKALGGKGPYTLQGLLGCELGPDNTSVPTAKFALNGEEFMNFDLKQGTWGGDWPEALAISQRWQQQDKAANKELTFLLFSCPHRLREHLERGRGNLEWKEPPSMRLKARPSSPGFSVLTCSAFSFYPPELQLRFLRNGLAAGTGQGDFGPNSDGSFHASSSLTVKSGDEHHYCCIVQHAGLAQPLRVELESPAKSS
Sequence of FcRn (P61769 21-119 partner): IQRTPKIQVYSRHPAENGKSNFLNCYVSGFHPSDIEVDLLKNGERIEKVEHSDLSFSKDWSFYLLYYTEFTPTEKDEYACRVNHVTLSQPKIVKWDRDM

As to “anti-α-synuclein antibody L971: anti-human α-synuclein monoclonal antibody expressed by CHO L971 cell-line; CHO L971 cells produce Prasinezumab”, the “FcRn relative binding level, higher than from the process with 3 mM L-cystine” value in the test with FcRn (FIG. 11C, antibody from process with 6 mM L-cysteine vs 3 mM L-cystine) is given as “about 33%”. The “FcRn relative binding level” value with FcRn (FIG. 11C, antibody from the process with 3 mM L-cystine in production medium) is on record as “about 85%”; with FcRn (FIG. 11C, antibody from the process with 6 mM L-cysteine in production medium), “about 118%”. Besides, the “Fcγ-RIIa (H131) relative binding level, higher than from the process with 3 mM L-cystine” value with Fcγ-RIIa (H131) (FIG. 11D, antibody from process with 6 mM L-cysteine vs 3 mM L-cystine) is “about 36%”. Moreover, the “Fcγ-RIIa (H131) relative binding level” value is recorded as “about 77%” in the test with Fcγ-RIIa (H131) (FIG. 11D, antibody from the process with 3 mM L-cystine in production medium) and “about 113%” in the test with Fcγ-RIIa (H131) (FIG. 11D, antibody from the process with 6 mM L-cysteine in production medium). The “target relative binding level, higher than from the process with 3 mM L-cystine” value in the test with human α-synuclein (FIG. 11E, antibody from process with 6 mM L-cysteine vs 3 mM L-cystine) is “about 35%”. Further, the “target relative binding level” value is “about 83%” in the test with human α-synuclein (FIG. 11E, antibody from the process with 3 mM L-cystine in production medium) and “about 118%” in the test with human α-synuclein (FIG. 11E, antibody from the process with 6 mM L-cysteine in production medium).
On to “anti-α-synuclein L971 (3 mM Cystine): anti-human α-synuclein monoclonal antibody (Prasinezumab) from CHO L971 process with 3 mM L-cystine in production medium”, for which the “Relative level of FcRn binding (at Day-14) (%)” value in the test with FcRn is given as 85.0%. Besides, the “Relative level of FcyRIIa binding (at Day-14) (%)” value with Fcγ-RIIa (H131) is recorded as 77.0%. Besides, the “Relative level of Target binding (at Day-14) (%)” value with human α-synuclein is 83.0%.
As for “anti-α-synuclein L971 (6 mM Cysteine): anti-human α-synuclein monoclonal antibody (Prasinezumab) from CHO L971 process with 6 mM L-cysteine in production medium”, the “Relative level of FcRn binding (at Day-14) (%)” value with FcRn turned out to be 118.0%. Besides, in the test with Fcγ-RIIa (H131), the “Relative level of FcyRIIa binding (at Day-14) (%)” value worked out at 113.0%. Further, in the test with human α-synuclein, the “Relative level of Target binding (at Day-14) (%)” value is recorded as 118.0%.
